# According to the supplement of paper PMC9233669:
# Fewer inactive variants are shown than the library holds.
# Tests used:
# biotinyl-Met-oxazolone = assay: self-aminoacylation, catalytic enhancement (BMO) (fold over background); higher = more active; k-Seq, kA / k0A0; sequences stand for … in GGGAAUGGAUCCACAUCUACGAAUUC…UUCACUGCAGACUUGACGAAGCUG
# Summary of the method: (§1)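 Working in 50 μL HEPES/NaCl/KCl/MgCl2/CaCl2 buffer with 5% acetonitrile at pH 6.9–7.0, mutagenized RNA pools (0.43 μM; 21-nt variable region) were reacted with 2–1250 μM of each biotinyl-aminoacyl-oxazolone for 90 minutes at room temperature. Streptavidin capture followed, with quantification by triplicate qPCR and Illumina sequencing. Catalytic enhancement is reported as median kA over the uncatalyzed rate, the low-activity peak of a bimodal Gaussian fit to the data.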
# biotinyl-Trp-oxazolone = assay: self-aminoacylation, catalytic enhancement (BWO) (fold over background); higher = more active; k-Seq, kA / k0A0; sequences stand for … in GGGAAUGGAUCCACAUCUACGAAUUC…UUCACUGCAGACUUGACGAAGCUG
# Summary of the method: as §1
# biotinyl-Leu-oxazolone = assay: self-aminoacylation, catalytic enhancement (BLO) (fold over background); higher = more active; k-Seq, kA / k0A0; sequences stand for … in GGGAAUGGAUCCACAUCUACGAAUUC…UUCACUGCAGACUUGACGAAGCUG
# Summary of the method: as §1
# biotinyl-Phe-oxazolone = assay: self-aminoacylation, catalytic enhancement (BFO) (fold over background); higher = more active; k-Seq, kA / k0A0; sequences stand for … in GGGAAUGGAUCCACAUCUACGAAUUC…UUCACUGCAGACUUGACGAAGCUG
# Summary of the method: as §1
# biotinyl-Val-oxazolone = assay: self-aminoacylation, catalytic enhancement (BVO) (fold over background); higher = more active; k-Seq, kA / k0A0; sequences stand for … in GGGAAUGGAUCCACAUCUACGAAUUC…UUCACUGCAGACUUGACGAAGCUG
# Summary of the method: as §1
# biotinyl-Ile-oxazolone = assay: self-aminoacylation, catalytic enhancement (BIO) (fold over background); higher = more active; k-Seq, kA / k0A0; sequences stand for … in GGGAAUGGAUCCACAUCUACGAAUUC…UUCACUGCAGACUUGACGAAGCUG
# Summary of the method: as §1
Sequence,self-aminoacylation (biotinyl-Met-oxazolone),self-aminoacylation (biotinyl-Trp-oxazolone),self-aminoacylation (biotinyl-Leu-oxazolone),self-aminoacylation (biotinyl-Phe-oxazolone),self-aminoacylation (biotinyl-Val-oxazolone),self-aminoacylation (biotinyl-Ile-oxazolone)
CUUACCCUGGACAUCGAGUGA [Fam2.1 aminoacylation ribozyme variant],5.08,5.06,5.46,11.5,3.18,2.78
AUUCAUCUAGGUCAGCGGGUG [Fam2.2 aminoacylation ribozyme variant],4.17,4.36,5.56,25.3,3.23,3.25
AUUCACCGAGGUCAUCUGGUG [Fam2.2 aminoacylation ribozyme variant],4.31,3.61,5.72,34.6,2.69,2.39
AUUACCAUGGUCGUCGAGUGA [Fam2.1 aminoacylation ribozyme variant],1.3,1.48,1.25,0.902,1.08,1.21
AUUCAUCUCGGUCAUCGGGUG [Fam2.2 aminoacylation ribozyme variant],6.97,6.85,9.9,49.8,4.55,4.65
CCGCACUGCAAGCAAUCGGUC [Fam1B.1 aminoacylation ribozyme variant],1.21,1.42,1.17,1,1.81,1.52
AUUUACCUAGGUCAUCGUGUG [Fam2.2 aminoacylation ribozyme variant],0.995,0.691,1.18,1.75,0.953,0.874
AAGUGUGCUAAUAGUCGUAAG [Fam3.1 aminoacylation ribozyme variant],1.69,7.72,0.899,28,1.12,1.54
CUACUUCAAACAAUCGUUCUU [Fam1A.1 aminoacylation ribozyme variant],0.716,0.574,0.64,0.947,0.729,0.712
AUUACCGUGGACAUCGAGUGA [Fam2.1 aminoacylation ribozyme variant],3.47,5.62,3.92,3.62,2.68,2.29
AUUACCGUGAUCAUCGAGUGA [Fam2.1 aminoacylation ribozyme variant],9.07,10.5,8.78,44.9,4.34,4.18
AUUACCCUGGUCAUUAAGUGA [Fam2.1 aminoacylation ribozyme variant],11.2,13.4,10.3,55.5,5.31,4.88
CUACUACAUACAAUCGGUCUG [Fam1A.1 aminoacylation ribozyme variant],0.901,0.58,0.641,0.703,0.782,0.812
AAGUUUGCUAGUAGUUGCAAG [Fam3.1 aminoacylation ribozyme variant],1.04,1.1,0.791,0.949,0.737,0.985
CUACUUCAAACAAUCGAGCUG [Fam1A.1 aminoacylation ribozyme variant],0.59,0.396,0.481,0.816,0.706,0.85
CUACUACAAACCAUCGGUCUG [Fam1A.1 aminoacylation ribozyme variant],0.845,0.765,0.702,0.739,0.822,0.837
CCACACUUAAAGCAAUCGGCC [Fam1B.1 aminoacylation ribozyme variant],1.71,1.7,2.15,7.34,1.97,1.72
AUUACCCUGGACAUGGAGUGA [Fam2.1 aminoacylation ribozyme variant],8.57,10.6,9.2,57.2,3.69,3.74
CUACUUCAAACUACCGGUCUG [Fam1A.1 aminoacylation ribozyme variant],0.809,0.846,0.868,0.75,0.832,1.1
CCAGACUUCAACCAAUCGGUC [Fam1B.1 aminoacylation ribozyme variant],1.63,31.4,2.1,51.2,1.72,1.39
CCACACUUCAUCCAAUCGGUC [Fam1B.1 aminoacylation ribozyme variant],0.811,0.581,0.854,0.689,0.912,0.883
CUACUUCAAUCUAUCGGUCUG [Fam1A.1 aminoacylation ribozyme variant],0.902,0.936,0.836,1.28,0.907,0.888
GCACACUUCAAGCAAUCGGCC [Fam1B.1 aminoacylation ribozyme variant],2.99,6.96,3.49,4.88,3.45,3.36
AUUCAUCUAGGUCAUCGGAUG [Fam2.2 aminoacylation ribozyme variant],0.879,0.846,0.802,0.576,1.04,0.962
AUUCCCCUAGGUCAGCGGGUG [Fam2.2 aminoacylation ribozyme variant],11.1,11,14.1,61.3,7.83,8.05
AUUCACCUAGUUCAUCGCGUG [Fam2.2 aminoacylation ribozyme variant],4.88,5.66,6.91,35.7,2.99,3.27

Sequence,self-aminoacylation (biotinyl-Met-oxazolone),self-aminoacylation (biotinyl-Trp-oxazolone),self-aminoacylation (biotinyl-Leu-oxazolone),self-aminoacylation (biotinyl-Phe-oxazolone),self-aminoacylation (biotinyl-Val-oxazolone),self-aminoacylation (biotinyl-Ile-oxazolone)
CCACACUUCAAGGAAUAGGUC [Fam1B.1 aminoacylation ribozyme variant],0.489,0.5,0.478,0.627,0.514,0.526
AAGUUUGCUGAUAGUCGCAAU [Fam3.1 aminoacylation ribozyme variant],1.22,1.87,1.09,1.68,1.33,1.71
CUACUUCAUACAAUCGGUCUU [Fam1A.1 aminoacylation ribozyme variant],0.724,0.491,0.844,0.932,0.972,1.01
ACUACCCUGGUCACCGAGUGA [Fam2.1 aminoacylation ribozyme variant],9.06,9.34,11.2,46.5,4.77,4.67
CCGGACUUCAAGCAAUCGGUC [Fam1B.1 aminoacylation ribozyme variant],1.31,26.3,2.03,39.3,1.71,1.5
AUUCACCUAGGUCAACGGGGG [Fam2.2 aminoacylation ribozyme variant],1.83,2.31,2.19,12.7,1.84,1.75
AAGUGUGCUAAUAGUCGCACG [Fam3.1 aminoacylation ribozyme variant],1.6,2.16,1.5,2.38,1.04,1.19
CCACACUUCGACCAAUCGGUC [Fam1B.1 aminoacylation ribozyme variant],1.74,1.41,1.22,1.42,1.85,1.31
CUACUGCAAACAAUGGGUCUG [Fam1A.1 aminoacylation ribozyme variant],1.2,1.12,1.13,1.5,1.08,1.25
CCACACUUCAAGCGAUAGGUC [Fam1B.1 aminoacylation ribozyme variant],0.471,0.453,0.543,0.743,0.642,0.605
AUUCACCUAGGUCGUCGAGUG [Fam2.2 aminoacylation ribozyme variant],0.743,0.529,0.851,0.746,0.878,0.661
AUUCACCUAGGUCAUAGAGUG [Fam2.2 aminoacylation ribozyme variant],2.98,2.12,3.92,10.1,2.08,2.23
AAGUUUGCUAACAGUCACAAG [Fam3.1 aminoacylation ribozyme variant],1.04,1.06,1.12,2.73,0.942,0.92
AUUCACGUAGGUCCUCGGGUG [Fam2.2 aminoacylation ribozyme variant],9.66,8.52,12.1,64.9,5.83,5.5
AUUCAGCUAGGCCAUCGGGUG [Fam2.2 aminoacylation ribozyme variant],10.1,10.1,12.4,72.1,6.97,6.95
AUGUUUGCUAAUAGUCGCGAG [Fam3.1 aminoacylation ribozyme variant],1.57,2.18,1.48,3.75,1.65,1.65
CCACACUUAAAUCAAUCGGUC [Fam1B.1 aminoacylation ribozyme variant],0.589,0.868,0.787,0.699,0.914,0.829
CUACUUCAAACAAUCCGGCUG [Fam1A.1 aminoacylation ribozyme variant],1.4,0.952,1.44,1.01,1.78,1.5
AAUGACCUAGGUCAUCGGGUG [Fam2.2 aminoacylation ribozyme variant],4.56,5.22,4.85,26.1,3.56,3.66
AAGUUUUGUAAUAGUCGCAAG [Fam3.1 aminoacylation ribozyme variant],1.53,1.84,1.5,2.1,1.55,1.64
AAUUUUGCAAAUAGUCGCAAG [Fam3.1 aminoacylation ribozyme variant],2.02,2.48,1.51,2.73,2.31,2.33
CUACUUCAACCAAUCAGUCUG [Fam1A.1 aminoacylation ribozyme variant],0.541,5.54,0.794,13.9,0.701,0.747
CCAUACUUCAAGCGAUCGGUC [Fam1B.1 aminoacylation ribozyme variant],1.02,0.926,0.976,1.17,1.25,1.15
AUUCAUCUAGGUCAUCGGGUU [Fam2.2 aminoacylation ribozyme variant],2.46,2.36,2.81,3.41,2.03,2.22
AUUCAUCUAGGACAUCGGGUG [Fam2.2 aminoacylation ribozyme variant],3.39,3.07,3.59,17.3,2.74,2.75
